Data on 4 molecules can be found in patent US10287354 (Novartis, dated 2019).

Assay [1] deals with T1, His-Avidin-FKBP (wild-type FKBP) (biotinylated).
T1 construct: also called biotinylated wild-type FKBP; biotinylated FKBP
Nature of the assay: AlphaLISA direct binding assay: 30 nM FLAG-FRB and 30 nM biotinylated FKBP, everolimus titrated 1:3 from 600 nM (EC50 is of everolimus). The protocol: (§1) FRB mutations were also ranked in an alternative assay format. […] All dilutions were made in 1× AlphaLISA Immunoassay buffer (PerkinElmer). Anti-Flag acceptor beads (PerkinElmer) were added at 10 ug/ml final concentration and incubated for one hour at room temperature. Streptavidin donor beads (PerkinElmer), were then added at a final concentration of 40 ug/ml and the plate was protected from light and incubated for 30 minutes at room temperature. The plate was then read on the PerkinElmer EnVision Multiplate reader equipped with the Alpha Module using excitation of 680 nm and a 570 nm Emission filter.

For assay [2], the target named is T1, His-Avidin-FKBP (wild-type FKBP). In words: AlphaLISA direct binding assay, EC50 relative to wild type FLAG-FRB. Here is the method: as §1

Where a chain is given by its changes, count along the chain named.

T1 sequence (chain, as listed by the source limits assumed): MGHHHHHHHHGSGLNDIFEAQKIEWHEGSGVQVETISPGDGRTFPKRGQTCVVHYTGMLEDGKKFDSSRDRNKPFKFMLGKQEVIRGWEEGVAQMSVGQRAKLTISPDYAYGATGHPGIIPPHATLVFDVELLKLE

B1: His-FLAG-FRB (wild-type FRB) (other)
chain: MGHHHHHHHHGSDYKDDDDKGSASRILWHEMWHEGLEEASRLYFGERNVKGMFEVLEPLHAMMERGPQTLKETSFNQAYGRDLMEAQEWCRKYMKSGNVKDLTQAWDLYYHVFRRISKTS
notes: also called wild type Flag-FRB
Broadly, the EC50 is the midpoint of the concentration-response curve. Molecule B1 displayed an EC50 in assay [1] of 3.9 nM.

B2: His-FLAG-FRB E2032L (other)
chain: B1 chain with E37L
notes: The entry already carries the mutation
In the case of B2, in assay [2], the “fold improvement over wild type FRB” value lay within 1.5 to 2 fold. For the same molecule, a half-maximal effect in assay [1] (EC50) was put at 2.15 nM.

B3: His-FLAG-FRB T2098L (other)
chain: B1 chain with T103L
notes: as for B2
On to B3, for which, in assay [2], the “fold improvement over wild type FRB” value worked out at 3 fold. In assay [1], this molecule had an EC50 of 1.44 nM.

B4: His-FLAG-FRB E2032I (other)
chain: B1 chain with E37I
notes: as for B2
In the case of B4, the “fold improvement over wild type FRB” value in assay [2] lay within 1.5 to 2 fold. This molecule gave an EC50 in assay [1] of 2.46 nM.
